In patent US12295987B2, “Method of using a GIP/GLP1 co-agonist for diabetes” (Eli Lilly and Company, priority 2018, dated 2025):
Numbered stars: 1 amine (or outer) side, 2 acyl side, 3 side chain; on linkers, the order of the positions; unused ones are H or OH. Square brackets hold non-standard residues; d marks the D form. Side chains are listed from the residue outwards. Ends that are not written are not given here. * marks the point of attachment. C20 diacid = O=C(O)CCCCCCCCCCCCCCCCCCC(=O)*; γGlu = O=C(O)[C@H](CCC(=O)[*:2])N[*:1]; αMeL = CC(C)C[C@](C)(N)C(=O)O; αMeK = C[C@](N)(CCCCN)C(=O)O; AEEA = NCCOCCOCC(=O)O; Aib = CC(C)(N)C(=O)O

What follows are substances tested against T1, human gastric inhibitory peptide receptor (hGIPR) (Homo sapiens, UniProt P48546) (assay: cAMP pharmacological functional assay in presence of 0.1% casein, hGIPR). Conditions: ratio of hGIPR to hGLP1R cAMP EC50 ratios.
T1 construct: expressed in transfected cells; host or cells: HEK293
T1 sequence (P48546 22-466): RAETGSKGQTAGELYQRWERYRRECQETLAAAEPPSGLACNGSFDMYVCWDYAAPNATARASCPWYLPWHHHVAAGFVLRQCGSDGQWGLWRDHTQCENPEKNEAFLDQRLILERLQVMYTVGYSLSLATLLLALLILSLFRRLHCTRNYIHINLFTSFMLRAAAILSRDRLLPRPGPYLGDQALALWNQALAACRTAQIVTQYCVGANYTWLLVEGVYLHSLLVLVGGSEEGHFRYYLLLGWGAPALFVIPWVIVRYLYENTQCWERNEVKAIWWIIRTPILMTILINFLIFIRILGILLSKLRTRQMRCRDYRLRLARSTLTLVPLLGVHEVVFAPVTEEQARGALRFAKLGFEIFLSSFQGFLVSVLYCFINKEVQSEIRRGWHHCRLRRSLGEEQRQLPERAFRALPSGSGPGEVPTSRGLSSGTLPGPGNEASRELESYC
Format: cell-based

Substance	[hGIPR/hGLP1R] EC50 Ratio
Y-Aib-EGT-αMeF-TSDYSI-αMeL-LDKK((2-[2-(2-Amino-ethoxy)-ethoxy]-acetyl)2-(γGlu)-CO—(CH2)18—CO2H)AQH-Aib-FIEYLIEGGPSSGAPPPS-NH2 (YXEGTXTSDYSIXLDKKAQHXFIEYLIEGGPSSGAPPPS; Aib, αMeF, αMeL; acylated lysine C20 diacid; amide; (2)..(2) Xaa at position 2 is Aib; (6)..(6) Xaa at position 6 is alpha-methyl-Phe; (13)..(13) Xaa at position 13 is alpha-methyl-Leu; MOD_RES (17)..(17) Lys at position 17 is chemically modified by conjugation of the epsilon-amino group of the Lys side chain with (2-[2-(2-amino-ethoxy)-ethoxy]-acetyl)2-(gamma-Glu)-CO-(CH2)18- CO2H; (21)..(21) Xaa at position 21 is Aib; MOD_RES (39)..(39) Ser at po) [Peptide 144]	4.23
Y-Aib-EGT-αMeF-TSDYSI-αMeL-LDSK((2-[2-(2-Amino-ethoxy)-ethoxy]-acetyl)2-(γGlu)-CO—(CH2)18—CO2H)AQ-Aib-AFIEYLIEGGPSSG-NH2 [Peptide 99]	3.61
Y-Aib-EGT-αMeF-TSDYSILLDKIAQ-Aib-AFIEYLIK((2-[2-(2-Amino-ethoxy)-ethoxy]-acetyl)2-(γGlu)-CO—(CH2)18—CO2H)GG-NH2 (YXEGTXTSDYSILLDKIAQXAFIEYLIKGG; Aib, αMeF; K lipidated C20 diacid-γGlu-AEEA2; C-terminal amide; (2)..(2) Xaa at position 2 is Aib; (6)..(6) Xaa at position 6 is alpha-methyl-Phe; (20)..(20) Xaa at position 20 is Aib; MOD_RES (28)..(28) Lys at position 28 is chemically modified by conjugation of the epsilon-amino group of the Lys side chain with (2-[2-(2-amino-ethoxy)-ethoxy]-acetyl)2-(gamma-Glu)-CO-(CH2)18- CO2H; MOD_RES (30)..(30) Gly at position 30 is amidated) [Peptide 95]	2.52
Y-Aib-EGT-αMeF-TSDYSILLDKK((2-[2-(2-Amino-ethoxy)-ethoxy]-acetyl)2-(γGlu)-CO—(CH2)18—CO2H)AQ-Aib-AFIEYLIEGGPSSG-NH2 [Peptide 98]	6.33
Y-Aib-EGTFTSDY-(D-Ser)-ILLDKK((2-[2-(2-Amino-ethoxy)-ethoxy]-acetyl)2-(γGlu)-CO—(CH2)18—CO2H)AQ-Aib-AFIEYLIEGGPSSGAPPPS-NH2 (YXEGTFTSDYXILLDKKAQXAFIEYLIEGGPSSGAPPPS; Aib, D-Ser, lipidated Lys, C-terminal amide; (2)..(2) Xaa at position 2 is Aib; (11)..(11) Xaa at position 11 is D-Ser; MOD_RES (17)..(17) Lys at position 17 is chemically modified by conjugation of the epsilon-amino group of the Lys side chain with (2-[2-(2-amino-ethoxy)-ethoxy]-acetyl)2-(gamma-Glu)-CO-(CH2)18- CO2H; (20)..(20) Xaa at position 20 is Aib; MOD_RES (39)..(39) Ser at position 39 is amidated) [Peptide 81]	5.92
Y-Aib-EGTFTSDY-aMeS-ILLDKK((2-[2-(2-Amino-ethoxy)-ethoxy]-acetyl)2-(γGlu)-CO—(CH2)18—CO2H)AQ-Aib-AFIEYLIEGGPSSGAPPPS-NH2 (YXEGTFTSDYXILLDKKAQXAFIEYLIEGGPSSGAPPPS; Aib, αMeS, lipidated Lys, C-terminal amide; (2)..(2) Xaa at position 2 is Aib; (11)..(11) Xaa at position 11 is alpha-methyl-Ser; MOD_RES (17)..(17) Lys at position 17 is chemically modified by conjugation of the epsilon-amino group of the Lys side chain with (2-[2-(2-amino-ethoxy)-ethoxy]-acetyl)2-(gamma-Glu)-CO-(CH2)18- CO2H; (20)..(20) Xaa at position 20 is Aib; MOD_RES (39)..(39) Ser at position 39 is amidated) [Peptide 68]	4.72
Y-Aib-EGTFTSDYSI-αMeL-LD-Aib-K((2-[2-(2-Amino-ethoxy)-ethoxy]-acetyl)2-(γGlu)-CO—(CH2)18—CO2H)AQ-Aib-AFIEYLIEGGPSSGAPPPS-NH2 (YXEGTFTSDYSIXLDXKAQXAFIEYLIEGGPSSGAPPPS; Aib, αMeL, lipidated Lys, C-terminal amide; (2)..(2) Xaa at position 2 is Aib; (13)..(13) Xaa at position 13 is alpha-methyl-Leu; (16)..(16) Xaa at position 16 is Aib; MOD_RES (17)..(17) Lys at position 17 is chemically modified by conjugation of the epsilon-amino group of the Lys side chain with (2-[2-(2-amino-ethoxy)-ethoxy]-acetyl)2-(gamma-Glu)-CO-(CH2)18- CO2H; (20)..(20) Xaa at position 20 is Aib; MOD_RES (39)..(39) Ser at position 39) [Peptide 60]	4.47
Y-Aib-EGTFTSDYSI-αMeL-LDEK((2-[2-(2-Amino-ethoxy)-ethoxy]-acetyl)2-(γGlu)-CO—(CH2)18—CO2H)AQ-Aib-AFIEYLIEGG-NH2 (YXEGTFTSDYSIXLDEKAQXAFIEYLIEGG; Aib, αMeL; K lipidated C20 diacid-γGlu-AEEA2; C-terminal amide; (2)..(2) Xaa at position 2 is Aib; (13)..(13) Xaa at position 13 is alpha-methyl-Leu; MOD_RES (17)..(17) Lys at position 17 is chemically modified by conjugation of the epsilon-amino group of the Lys side chain with (2-[2-(2-amino-ethoxy)-ethoxy]-acetyl)2-(gamma-Glu)-CO-(CH2)18- CO2H; (20)..(20) Xaa at position 20 is Aib; MOD_RES (30)..(30) Gly at position 30 is amidated) [Peptide 63]	4.09
Y-Aib-EGTFTSDYSI-αMeL-LDEK((2-[2-(2-Amino-ethoxy)-ethoxy]-acetyl)2-(γGlu)-CO—(CH2)18—CO2H)AQ-Aib-AFIEYLLEGGPSSGAPPPS-NH2 (YXEGTFTSDYSIXLDEKAQXAFIEYLLEGGPSSGAPPPS; Aib, αMeL, lipidated Lys, C-terminal amide; (2)..(2) Xaa at position 2 is Aib; (13)..(13) Xaa at position 13 is alpha-methyl-Leu; MOD_RES (17)..(17) Lys at position 17 is chemically modified by conjugation of the epsilon-amino group of the Lys side chain with (2-[2-(2-amino-ethoxy)-ethoxy]-acetyl)2-(gamma-Glu)-CO-(CH2)18- CO2H; (20)..(20) Xaa at position 20 is Aib; MOD_RES (39)..(39) Ser at position 39 is amidated) [Peptide 66]	7.41
Y-Aib-EGTFTSDYSI-αMeL-LDEK((2-[2-(2-Amino-ethoxy)-ethoxy]-acetyl)2-(γGlu)-CO—(CH2)18—CO2H)AQ-αMeK-AFIEYLLE-Aib-GPSSGAPPPS-NH2 (Y[Aib]EGTFTSDYSI[αMeL]LDEK([AEEA-AEEA-γGlu-C20 diacid])AQ[αMeK]AFIEYLLE[Aib]GPSSGAPPPS-NH2; N-terminus assumed; SMILES CC[C@H](C)[C@H](NC(=O)[C@H](Cc1ccccc1)NC(=O)[C@H](C)NC(=O)[C@](C)(CCCCN)NC(=O)[C@H](CCC(N)=O)NC(=O)[C@H](C)NC(=O)[C@H](CCCCNC(=O)COCCOCCNC(=O)COCCOCCNC(=O)CC[C@H](NC(=O)CCCCCCCCCCCCCCCCCCC(=O)O)C(=O)O)NC(=O)[C@H](CCC(=O)O)NC(=O)[C@H](CC(=O)O)NC(=O)[C@H](CC(C)C)NC(=O)[C@](C)(CC(C)C)NC(=O)[C@@H](NC(=O)[C@H](CO)NC(=O)[C@H](Cc1ccc(O)cc1)NC(=O)[C@H](CC(=O)O)NC(=O)[C@H](CO)NC(=O)[C@@H](NC(=O)[C@H](Cc1ccccc1)NC(=O)[C@@H](NC(=O)CNC(=O)[C@H](CCC(=O)O)NC(=O)C(C)(C)NC(=O)[C@@H](N)Cc1ccc(O)cc1)[C@@H](C)O)[C@@H](C)O)[C@@H](C)CC)C(=O)N[C@@H](CCC(=O)O)C(=O)N[C@@H](Cc1ccc(O)cc1)C(=O)N[C@@H](CC(C)C)C(=O)N[C@@H](CC(C)C)C(=O)N[C@@H](CCC(=O)O)C(=O)NC(C)(C)C(=O)NCC(=O)N1CCC[C@H]1C(=O)N[C@@H](CO)C(=O)N[C@@H](CO)C(=O)NCC(=O)N[C@@H](C)C(=O)N1CCC[C@H]1C(=O)N1CCC[C@H]1C(=O)N1CCC[C@H]1C(=O)N[C@@H](CO)C(N)=O) [Peptide 22]	6.41
